This experiment concerns the target EGFR recombinant human protein (human, UniProt P00533 25-645). Kind of experiment: SPR.

For orientation: Kd means a measure of binding affinity in units of concentration. AEYDFYGPGNEGSW (designed binder) [Pep24]: the Kd amounted to 7.2 µM.
